From PMC4044012, “Genome-Based Discovery of a Novel Membrane-Bound 1,6-Dihydroxyphenazine Prenyltransferase from a Marine Actinomycete” (PLoS ONE, 2014) come the findings set out here.

Common to all, as to experiment: prenyltransferase assay with E. coli membrane fraction, HPLC-UV product quantification
One data set deals with T1, Mpz10 (Streptomyces sp. SpC080624SC-11, UniProt A0A068CM06).
T1 construct: NcoI/EcoRI in pET-28a(+) (pPH23), apparently untagged; E. coli Rosetta2(DE3)pLysS membrane fraction
T1 sequence (A0A068CM06 1-331): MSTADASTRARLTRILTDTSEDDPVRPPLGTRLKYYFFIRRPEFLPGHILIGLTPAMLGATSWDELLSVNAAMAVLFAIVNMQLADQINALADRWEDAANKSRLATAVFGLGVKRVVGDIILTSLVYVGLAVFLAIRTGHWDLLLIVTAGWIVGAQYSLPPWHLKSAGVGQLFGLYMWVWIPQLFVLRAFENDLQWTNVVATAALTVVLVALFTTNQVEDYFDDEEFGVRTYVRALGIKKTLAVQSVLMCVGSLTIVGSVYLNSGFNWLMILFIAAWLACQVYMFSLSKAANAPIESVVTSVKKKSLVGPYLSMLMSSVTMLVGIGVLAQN
The format is biochemical. To be noted: read-out: apparent Km; DMAPP co-substrate, 10 mM MgCl2, 50 mM Tris-HCl pH 8.1, 30°C.

Substrate in data set [1]: CC(C)=CCOP(=O)(O)OP(=O)(O)O
The format is biochemical, Streptomyces sp. SpC080624SC-11. To be noted: 0.2 mM 1,6-dihydroxyphenazine constant, 10 mM MgCl2, 50 mM Tris-HCl pH 8.1, 30°C.

Substrate in data set [2]: Oc1cccc2nc3c(O)cccc3nc12
The format is biochemical, Streptomyces sp. SpC080624SC-11. Conditions: 0.5 mM DMAPP constant, 10 mM MgCl2, 50 mM Tris-HCl pH 8.1, 30°C.

One may read the Km as the concentration of substrate that gives half-maximal velocity. As for `Oc1cccc2nc3ccccc3nc12` [1-hydroxyphenazine], the Michaelis constant (Km) at Mpz10 worked out at 9.8 µM.

B1: Mpz10 (Streptomyces sp. SpC080624SC-11) (protein)
chain: MSTADASTRARLTRILTDTSEDDPVRPPLGTRLKYYFFIRRPEFLPGHILIGLTPAMLGATSWDELLSVNAAMAVLFAIVNMQLADQINALADRWEDAANKSRLATAVFGLGVKRVVGDIILTSLVYVGLAVFLAIRTGHWDLLLIVTAGWIVGAQYSLPPWHLKSAGVGQLFGLYMWVWIPQLFVLRAFENDLQWTNVVATAALTVVLVALFTTNQVEDYFDDEEFGVRTYVRALGIKKTLAVQSVLMCVGSLTIVGSVYLNSGFNWLMILFIAAWLACQVYMFSLSKAANAPIESVVTSVKKKSLVGPYLSMLMSSVTMLVGIGVLAQN
notes: NcoI/EcoRI in pET-28a(+) (pPH23), apparently untagged; E. coli Rosetta2(DE3)pLysS membrane fraction
With B1, the Michaelis-Menten constant (Km) in data set [1] stood at 153 µM; in data set [2], 53 µM.
